These results are taken from US20240084017A1 (ASCENDO BIOTECHNOLOGY, published 2024).

The target of assay [1] is T1, human Mac-1 (integrin αMβ2, CD11b/CD18) (human, UniProt P11215 17-1152; P05107 23-769). Kind of assay: flow cytometry, HEK293/Mac-1 cells, PBS/MnCl2 (Mn2+), 10 µg/ml of this antibody; binding of reporter mAb KIM127 read. Here is the method:
(§1) The HEK293/Mac-1 cells (clone1-4) were counted and washed twice with staining buffer (PBS containing 1% FBS, and 0.1% sodium azide). Cells were adjusted at a concentration of 1×10⁵ cells/ml in staining buffer and treated with/without 0.25 mM MnCl₂ (Sigma). Cells were treated with anti-Mac-1 antibodies and fluorescent conjugated anti-human IgG4 antibodies and incubated for 15 mins. After washing with the staining buffer, the cells were analyzed by flow cytometry. In some examples, these cells were treated with the antibodies (ICRF44, KIM127, m24, or isotype control) in the presence or absence 10 μg/ml anti-Mac-1 antibodies. The cells were then incubated at 37° C. for 30 min. After washing with the staining buffer, the cells were analyzed by flow cytometry.
(§2) TABLE IV The anti-Mac-1 antibody can serve as an antagonist to reduce the conformational change of Mac-1. HEK293/Mac-1 cells (clone1-4) were incubated with 10 μg/ml anti-Mac-1 antibodies under the PBS/MnCl₂ (Mn²⁺) condition. Binding of KIM127 or m24 was detected using flow cytometry.
A general note: In flow cytometry, cells or beads pass a laser one at a time.

Assay [2] deals with T1, human Mac-1 (integrin αMβ2, CD11b/CD18). Briefly: flow cytometry, HEK293/Mac-1 cells (clone 1-4), PBS (Mock). Here is the method: as §1
(§3) TABLE II The anti-Mac-1 antibodies selectively bind to different statuses of human Mac-1. HEK293/Mac-1 cells (clone1-4) were incubated in PBS (Mock), or PBS/MnCl₂ (Mn²⁺). Binding of isotype control IgG, the CD11b specific mAb (ICRF44), the CD11b activation-sensing mAb (CBRM1/5), or the screened anti-Mac-1 antibody was detected using flow cytometry.

Assay [3] has the same target. Kind of assay: flow cytometry, HEK293/Mac-1 cells, PBS/MnCl2 (Mn2+), 10 µg/ml of this antibody; binding of reporter mAb m24 read. Here is the method: as §1, §2
The target is the same in assay [4]. Briefly: flow cytometry, HEK293/Mac-1 cells (clone 1-4), PBS/MnCl2 (Mn2+). Here is the method:
as §1, §3

The target is the same in assay [5]. Kind of assay: flow cytometry, HEK293/Mac-1 cells, PBS (Mock), 10 µg/ml of this antibody; binding of reporter mAb m24 read. Here is the method: as §1
(§4) TABLE III The anti-Mac-1 antibodies can serve as agonist to enhance the conformational change of Mac-1. HEK293/Mac-1 cells (clone1-4) were incubated with 10 μg/ml anti-Mac-1 antibodies under the PBS (Mock) condition. Binding of KIM127 or m24 was detected using flow cytometry.

Assay [6] has the same target. Briefly: flow cytometry, HEK293/Mac-1 cells, PBS (Mock), 10 µg/ml of this antibody; binding of reporter mAb KIM127 read. Here is the method:
as §1, §4

Assay [7] has the same target. Kind of assay: flow cytometry, HEK293/Mac-1 cells; MFI in PBS over MFI in PBS/MnCl2. Here is the method:
as §1, §3

B1: anti-Mac-1 antibody clone 28D06 (antibody, human IgG4, V domains shown)
VH: QVKLQQSGPELVKPGASVKISCKASGYSFTDYNMNWVKQSNGKSLEWIGEINPNYGTTRYNQKFKGKATLTVDQSSSTAYMQLNSLTSEDSAVYYCARPSIYYDYDDAMDYWGQGTTVTVSS
VL: DIELTQSPAIMSASPGEKVTMTCSASSSVNYMYWYQQKPGSSPRLLIYDTSNLASGVPVRFSGSGSGTSYSLTISRMEAEDAATYYCQQWITYPPTLTFGAGTKLEIK
Consider B1, for which the “KIM127 (Expression relative to IgG4)” value was 0.69 relative to IgG4 in assay [1] and 0.99 relative to IgG4 in assay [6]. For the same molecule, in assay [2], the “Mock MFI” value amounted to 51800 MFI. For the same molecule, the “m24 (Expression relative to IgG4)” value is 0.62 relative to IgG4 in assay [3] and 0.65 relative to IgG4 in assay [5]. In assay [4], the “Mn^2+ MFI” value was 30600 MFI. The “Mock/Mn^2+ Ratio” value in assay [7] worked out at 1.69.

B2: anti-Mac-1 antibody clone 24G05 (antibody, human IgG4, V domains shown)
VH: EVQLVESGGGLVQPGGSLRLSCAASGFTFTSYWMTWVRQAPGKGLEWVSTIVGGGGEADYADSVKGRFTISRDNSKNTLYLQMNSLRAEDTAVYYCARDYVADNHGAMDYWGQGTLVTVSS
VL: DIQMTQSPSSLSASVGDRVTITCRASQGLSSYLNWYQQKPGKAPKLLIYGMSTLQSGVPSRFSGSGSGTDFTLTISSLQPEDFATYYCMQYYHWPYTFGQGTKVEIK
For B2, the “KIM127 (Expression relative to IgG4)” value in assay [1] is 1.64 relative to IgG4; in assay [6] it was 2.22 relative to IgG4. In addition, the “Mock MFI” value in assay [2] is 55900 MFI. Moreover, the “m24 (Expression relative to IgG4)” value in assay [3] is 3.85 relative to IgG4; in assay [5] it was 25 relative to IgG4. Further, the “Mn^2+ MFI” value in assay [4] was determined as 44800 MFI. Moreover, in assay [7], the “Mock/Mn^2+ Ratio” value was 1.25.

B3: anti-Mac-1 antibody clone 28E07-HH (antibody, human IgG4, V domains shown)
VH: QVQLVQSGAEVKKPGASVKVSCKASGYSFTDYNMNWVRQAPGQGLEWMGEINPGYGTSRYNQKFKDRVTMTRDTSISTAYMELSRLRSDDTAVYYCARADVDYGDVMDYWGQGTLVTVSS
VL: EIVLTQSPATLSLSPGERATLSCSASSSVSYMHWYQQKPGQAPRLLIYDTSKLASGIPARFSGSGSGTDFTLTISSLEPEDFAVYYCQQWSSNPPTFGQGTKLEIK
B3: the “KIM127 (Expression relative to IgG4)” value in assay [1] was 0.87 relative to IgG4; in assay [6], 0.9 relative to IgG4. The “Mock MFI” value in assay [2] is 1.03e+06 MFI. Also, the “m24 (Expression relative to IgG4)” value was 0.75 relative to IgG4 in assay [3] and 0.83 relative to IgG4 in assay [5]. Further, in assay [4], the “Mn^2+ MFI” value was 1.02e+06 MFI. Besides, in assay [7], the “Mock/Mn^2+ Ratio” value is 1.01.

B4: anti-Mac-1 antibody clone 28A12 (antibody, human IgG4, V domains shown)
VH: QVKLQESGPELVKPGASVKISCKASGYSFTDYNMNWVKQSNGKSLEWIGEINPGYGTSRYNQKFKDKATLTVDQSSSTAYMQLNSLTSEDSAVYYCARADVDYGDTMDYWGQGTTVTVSS
VL: DIELTQSPAIMSASPGEKVTMTCSASSSVSDMHWYQQKSGNSPKRWIYDTSKLASGVPVRFSGSGSGTSYSLTISSMEAEDAATYYCQQWSSNPPTFGAGTKLELK
Regarding B4, the “KIM127 (Expression relative to IgG4)” value is 0.87 relative to IgG4 in assay [1] and 1.02 relative to IgG4 in assay [6]. Also, in assay [2], the “Mock MFI” value is 55200 MFI. Also, the figures for the “m24 (Expression relative to IgG4)” value in assay [3] and in assay [5] were 1.07 relative to IgG4 and 0.88 relative to IgG4, respectively. Moreover, the “Mn^2+ MFI” value in assay [4] was found to be 37300 MFI. For the same molecule, the “Mock/Mn^2+ Ratio” value in assay [7] is 1.48.

B5: anti-Mac-1 antibody clone 24G09 (antibody, human IgG4, V domains shown)
VH: EVQLVESGGGLVQPGGSLRLSCAASGFTFSDYAIGWVRQAPGKGLEWVSTIYWSGSNAYYADSVKGRFTISRDNSKNTLYLQMNSLRAEDTAVYYCARLFTLGYHGFDVWGQGTLVTVSS
VL: DIQMTQSPSSLSASVGDRVTITCRASQSINTYLNWYQQKPGKAPKLLIYDASNLQSGVPSRFSGSGSGTDFTLTISSLQPEDFATYYCQQYDDLPFTFGQGTKVEIK
B5: the “KIM127 (Expression relative to IgG4)” value in assay [1] was 0.89 relative to IgG4; in assay [6], 1.01 relative to IgG4. Also, the “Mock MFI” value in assay [2] was determined as 29500 MFI. For the same molecule, the “m24 (Expression relative to IgG4)” value in assay [3] was 1 relative to IgG4; in assay [5] it was 0.72 relative to IgG4. Further, the “Mn^2+ MFI” value in assay [4] is 26900 MFI. The “Mock/Mn^2+ Ratio” value in assay [7] came to 1.1.

B6: anti-Mac-1 antibody clone 24F08 (antibody, human IgG4, V domains shown)
VH: EVQLVESGGGLVQPGGSLRLSCAASGFTFSSYWMSWVRQAPGKGLEWVSIINYSGREADYADSVKGRFTISRDNSKNTLYLQMNSLRAEDTAVYYCARDGSYVGQAHEAFDIWGQGTLVTVSS
VL: DIQMTQSPSSLSASVGDRVTITCRASQSISKYLAWYQQKPGKAPKLLIYGTSNLQSGVPSRFSGSGSGTDFTLTISSLQPEDFATYYCQQSRSWPLTFGQGTKVEIK
For B6, the “KIM127 (Expression relative to IgG4)” value in assay [1] was 1.73 relative to IgG4; in assay [6], 2.17 relative to IgG4. Further, in assay [2], the “Mock MFI” value was 50000 MFI. Moreover, the “m24 (Expression relative to IgG4)” value in assay [3] is 4.01 relative to IgG4; in assay [5] it was 21.2 relative to IgG4. Further, the “Mn^2+ MFI” value in assay [4] turned out to be 42100 MFI. Further, the “Mock/Mn^2+ Ratio” value in assay [7] is 1.19.

B7: anti-Mac-1 antibody clone 24F09 (antibody, human IgG4, V domains shown)
VH: EVQLVESGGGLVQPGGSLRLSCAASGFTFSSAWMSWVRQAPGKGLEWVSTIYWSGSEINYADSVKGRFTISRDNSKNTLYLQMNSLRAEDTAVYYCARSFASGESAMDVWGQGTLVTVSS
VL: DIQMTQSPSSLSASVGDRVTITCRASQSISNYLAWYQQKPGKAPKLLIYDASNLQSGVPSRFSGSGSGTDFTLTISSLQPEDFATYYCQQYYSSPPTFGQGTKVEIK
notes: also called 24F9
In the case of B7, the “KIM127 (Expression relative to IgG4)” value in assay [1] was 1.71 relative to IgG4; in assay [6] it was 2.05 relative to IgG4. The “Mock MFI” value in assay [2] came out at 39800 MFI. Further, the “m24 (Expression relative to IgG4)” value in assay [3] was 4.01 relative to IgG4; in assay [5] it was 19.1 relative to IgG4. Further, the “Mn^2+ MFI” value in assay [4] was found to be 33900 MFI. Moreover, the “Mock/Mn^2+ Ratio” value in assay [7] is 1.17.

B8: anti-Mac-1 antibody clone 27E12 (antibody, human IgG4, V domains shown)
VH: QVQLQQSGTVLARPGASVKMSCKASGYTFTSYWMHWVKQRPGQGLEWIGAIYPGNSDTSYNQKFKGKAKLTAVTSASTAYMELSSLTNEDSAVYYCTRGGGSYEFAYWGQGTTVTVSS
VL: DIELTQSPAIMSASPGEKVTMTCSVSSSVSYMYWYQQKPGSSPRLLIYDTSNLASGVPARFSGSGSGTSYSLTISSMEAEDAATYYCQQWSSNPFTFGSGTKLEIK
As to B8, the “KIM127 (Expression relative to IgG4)” value was 0.71 relative to IgG4 in assay [1] and 1 relative to IgG4 in assay [6]. The “Mock MFI” value in assay [2] was found to be 56800 MFI. In addition, the “m24 (Expression relative to IgG4)” value in assay [3] is 0.85 relative to IgG4; in assay [5] it was 0.64 relative to IgG4. For the same molecule, in assay [4], the “Mn^2+ MFI” value is 50800 MFI. Further, the “Mock/Mn^2+ Ratio” value in assay [7] was found to be 1.12.

B9: anti-Mac-1 antibody clone H4L2 (antibody, human IgG4, V domains shown)
VH: QVQLVQSGAEVKKPGASVKVSCKASGYTFTNYWINWVRQAPGQRLEWMGNIYPSDTYINHNQKFKDRVTITRDTSASTAYMELSSLRSEDTAVYYCARSAYANYFDYWGQGTLVTVSS
VL: EIVMTQSPATLSVSPGERATLSCRASQNIGTSIHWYQQKPGQAPRLLIYYASESISGIPARFSGSGSGTEFTLTISSLQSEDFAVYYCQQSDSWPTLTFGQGTKLEIK
In the case of B9, the entries for the “KIM127 (Expression relative to IgG4)” value in assay [1] and in assay [6] were 0.63 relative to IgG4 and 1.11 relative to IgG4, respectively. The “Mock MFI” value in assay [2] was 41600 MFI. The “m24 (Expression relative to IgG4)” value was 0.23 relative to IgG4 in assay [3] and 0.44 relative to IgG4 in assay [5]. Moreover, the “Mn^2+ MFI” value in assay [4] came to 45700 MFI. The “Mock/Mn^2+ Ratio” value in assay [7] is 0.91.
